Source: patent US20260234245A1 (ELTHERA, published 2026)

Key:
[1] = target: T1, soluble His-tagged human L1CAM (extracellular portion, amino acids 20 to 1120) (human, UniProt P32004 20-1120); assay: SPR (Biacore T200), antibody captured on C1 Protein A chip, His-tagged human L1CAM as analyte 10, 20, 40 nM, 1:1 Langmuir fit
T1 construct: range 20-1120; Expressed in HEK cells with an N-terminal leader peptide for secretion (not part of the assayed protein)
Experimental: (§1) Monovalent kinetic binding constants of the eight humanized antibody variants towards human L1CAM were determined by surface plasmon resonance using a Biacore T200 instrument. Antibodies were captured via their Fc regions on a C1 Protein A Chip (GE Healthcare), and soluble His-tagged human L1CAM was injected as analyte in 3 different concentrations (10, 20 and 40 nM), using 10 mM HEPES/150 mM NaCl/3 mM EDTA/0.05% Tween 20 as running buffer. Detected resonance units (sensorgrams) were fitted to a 1:1 Langmuir binding model and association (kₐ) and dissociation (kd) rate constants as well as the affinity constants (KD) were calculated.

[2] = target: T1, soluble His-tagged human L1CAM …; assay: SPR (Biacore T200), antibody captured on Protein A chip, His-tagged human L1CAM as analyte 5, 10, 20, 40 nM, 1:1 Langmuir fit
Experimental: as §1
The monovalent kinetic binding constants towards human L1CAM were determined by surface plasmon resonance using a Biacore T200 instrument as described in Example 4, except that soluble His-tagged human L1CAM was injected in 4 different concentrations (5, 10, 20 and 40 nM).

T1 sequence (P32004 other isoform, or with tags, fused parts or gaps limits assumed): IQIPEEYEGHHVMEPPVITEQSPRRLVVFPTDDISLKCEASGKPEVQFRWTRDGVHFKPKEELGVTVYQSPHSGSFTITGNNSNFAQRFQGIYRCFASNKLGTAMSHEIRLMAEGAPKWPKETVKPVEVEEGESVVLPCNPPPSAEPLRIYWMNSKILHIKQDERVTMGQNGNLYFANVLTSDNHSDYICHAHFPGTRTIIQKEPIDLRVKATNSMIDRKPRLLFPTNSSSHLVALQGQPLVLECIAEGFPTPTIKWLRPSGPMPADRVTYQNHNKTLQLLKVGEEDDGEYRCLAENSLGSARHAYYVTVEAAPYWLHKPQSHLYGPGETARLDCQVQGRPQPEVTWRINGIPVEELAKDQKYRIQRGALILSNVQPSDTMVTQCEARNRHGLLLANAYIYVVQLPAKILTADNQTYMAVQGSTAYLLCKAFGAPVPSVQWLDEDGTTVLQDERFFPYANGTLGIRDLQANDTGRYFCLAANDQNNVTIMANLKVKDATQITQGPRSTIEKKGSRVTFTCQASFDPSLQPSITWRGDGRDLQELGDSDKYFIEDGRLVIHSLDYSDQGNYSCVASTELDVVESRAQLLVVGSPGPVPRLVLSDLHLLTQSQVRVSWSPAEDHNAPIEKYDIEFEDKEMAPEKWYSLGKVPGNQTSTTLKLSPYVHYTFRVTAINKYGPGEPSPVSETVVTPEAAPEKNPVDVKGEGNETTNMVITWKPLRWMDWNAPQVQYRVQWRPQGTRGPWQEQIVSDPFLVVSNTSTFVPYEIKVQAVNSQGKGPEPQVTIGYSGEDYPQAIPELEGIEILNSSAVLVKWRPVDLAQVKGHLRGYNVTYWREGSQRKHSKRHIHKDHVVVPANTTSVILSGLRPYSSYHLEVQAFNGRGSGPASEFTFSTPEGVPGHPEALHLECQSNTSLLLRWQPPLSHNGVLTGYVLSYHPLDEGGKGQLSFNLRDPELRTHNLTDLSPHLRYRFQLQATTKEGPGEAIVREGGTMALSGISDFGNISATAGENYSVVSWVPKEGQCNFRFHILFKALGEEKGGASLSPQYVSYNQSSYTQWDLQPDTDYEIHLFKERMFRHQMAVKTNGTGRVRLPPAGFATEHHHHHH

Row | Binder | Kd [1] [nM] | koff [1] [s⁻¹] | kon [1] [M⁻¹ s⁻¹] | Kd [2] [nM] | koff [2] [s⁻¹] | kon [2] [M⁻¹ s⁻¹]
1 | H1L1 (antibody, V domains shown, also called humanized antibody variant H1L1; parental antibody H1L1) VH: QVQLQESGPGLVKPSQTLSLTCTVTGYSITSDYAWNWIRQFPGKGLEWMGYISYSGSFSYHPSLKSRVTISRDTSKNQFSLKLSSVTAADTAVYYCARSFSYGYGFAYWGQGTLVTVSS VL: DIQMTQSPSSLSASVGDRVTITCKASQDVSSAVAWYQQKPGKAPKLLIYSASYRYTGVPSRFSGSGSGTDFTFTISSLQPEDFATYYCQQHYSTPWTFGGGTKVEIK | 4.5 | 0.00079 | 177000 |  |  | 
2 | AFF1 (antibody, human IgG1, V domains shown) VH: QVQLQESGPGLVKPSQTLSLTCTVTGYSITSDYAWNWIRQFPGKGLEWMGYISYSGSFSYNPSLKSRVTISRDTSKNQFSLKLSSVTAADTAVYYCARSFSYSYGFAYWGQGTLVTVSS VL: DIQMTQSPSSLSASVGDRVTITCKASQDVSSAVAWYQQKPGKAPKLLIYSASYRYTGVPSRFSGSGSGTDFTFTISSLQPEDFATYYCQQHYSTPWTFGGGTKVEIK |  |  |  | 0.36 | 0.000104 | 290000
3 | AFF2 (antibody, human IgG1, V domains shown) VH: QVQLQESGPGLVKPSQTLSLTCTVTGYSITSDYTWNWIRQFPGKGLEWMGYISYSGSFSYNPSLKSRVTISRDTSKNQFSLKLSSVTAADTAVYYCARSFSYSYGFAYWGQGTLVTVSS VL: DIQMTQSPSSLSASVGDRVTITCKASQDVSSAVAWYQQKPGKAPKLLIYSASYRYTGVPSRFSGSGSGTDFTFTISSLQPEDFATYYCQQHYSTPWTFGGGTKVEIK |  |  |  | 0.31 | 0.000126 | 411000
4 | AFF3 (antibody, human IgG1, V domains shown) VH: QVQLQESGPGLVKPSQTLSLTCTVTGYSITSDYAWNWIRQFPGKGLEWMGYISYSGSYSYNPSLKSRVTISRDTSKNQFSLKLSSVTAADTAVYYCARSFSYSYGFAYWGQGTLVTVSS VL: DIQMTQSPSSLSASVGDRVTITCKASQDVSSAVAWYQQKPGKAPKLLIYSASYRYTGVPSRFSGSGSGTDFTFTISSLQPEDFATYYCQQHYSTPWTFGGGTKVEIK |  |  |  | 0.22 | 6.52e-05 | 299000
5 | AFF5 (antibody, human IgG1, V domains shown) VH: QVQLQESGPGLVKPSQTLSLTCTVTGYSITSDYTWNWIRQFPGKGLEWMGYISYSGSYSYHPSLKSRVTISRDTSKNQFSLKLSSVTAADTAVYYCARSLSYGYGFAYWGQGTLVTVSS VL: DIQMTQSPSSLSASVGDRVTITCKASQDVSSAVAWYQQKPGKAPKLLIYSASYRYTGVPSRFSGSGSGTDFTFTISSLQPEDFATYYCQQHYSTPWTFGGGTKVEIK |  |  |  | 0.72 | 0.000252 | 349000
6 | AFF6 (antibody, human IgG1, V domains shown) VH: QVQLQESGPGLVKPSQTLSLTCTVTGYSITSDYTWNWIRQFPGKGLEWMGYISYSGSFSYNPSLKSRVTISRDTSKNQFSLKLSSVTAADTAVYYCARSLSYGYGFAYWGQGTLVTVSS VL: DIQMTQSPSSLSASVGDRVTITCKASQDVSSAVAWYQQKPGKAPKLLIYSASYRYTGVPSRFSGSGSGTDFTFTISSLQPEDFATYYCQQHYSTPWTFGGGTKVEIK |  |  |  | 0.98 | 0.000337 | 345000
7 | AFF7 (antibody, human IgG1, V domains shown) VH: QVQLQESGPGLVKPSQTLSLTCTVTGYSITSDYAWNWIRQFPGKGLEWMGYISYSGSFSYNPSLKSRVTISRDTSKNQFSLKLSSVTAADTAVYYCARSFSYSYGFAYWGQGTLVTVSS VL: DIQMTQSPSSLSASVGDRVTITCKASQDVSSAVAWYQQKPGKAPKLLIYSASYRYIGVPSRFSGSGSGTDFTFTISSLQPEDFATYYCQQHYSTPWTFGGGTKVEIK |  |  |  | 0.32 | 8.83e-05 | 273000
8 | AFF8 (antibody, human IgG1, V domains shown) VH: QVQLQESGPGLVKPSQTLSLTCTVTGYSITSDYTWNWIRQFPGKGLEWMGYISYSGSFSYNPSLKSRVTISRDTSKNQFSLKLSSVTAADTAVYYCARSFSYSYGFAYWGQGTLVTVSS VL: DIQMTQSPSSLSASVGDRVTITCKASQDVSSAVAWYQQKPGKAPKLLIYSASYRYIGVPSRFSGSGSGTDFTFTISSLQPEDFATYYCQQHYSTPWTFGGGTKVEIK |  |  |  | 0.3 | 0.000116 | 383000
9 | AFF9 (antibody, human IgG1, V domains shown) VH: QVQLQESGPGLVKPSQTLSLTCTVTGYSITSDYAWNWIRQFPGKGLEWMGYISYSGSYSYNPSLKSRVTISRDTSKNQFSLKLSSVTAADTAVYYCARSFSYAYGFAYWGQGTLVTVSS VL: DIQMTQSPSSLSASVGDRVTITCKASQDVSSAVAWYQQKPGKAPKLLIYSASYRYTGVPSRFSGSGSGTDFTFTISSLQPEDFATYYCQQHYSTPWTFGGGTKVEIK |  |  |  | 0.36 | 9.28e-05 | 258000
10 | AFF10 (antibody, human IgG1, V domains shown) VH: QVQLQESGPGLVKPSQTLSLTCTVTGYSITSDYTWNWIRQFPGKGLEWMGYISYSGSYSYHPSLKSRVTISRDTSKNQFSLKLSSVTAADTAVYYCARSFSYGYGFAYWGQGTLVTVSS VL: DIQMTQSPSSLSASVGDRVTITCKASQDVSSAVAWYQQKPGKAPKLLIYSASYRYTGVPSRFSGSGSGTDFTFTISSLQPEDFATYYCQQHYSTPWTFGGGTKVEIK |  |  |  | 0.99 | 0.000251 | 255000
11 | H1L2 (antibody, V domains shown, also called humanized antibody variant H1L2) VH: QVQLQESGPGLVKPSQTLSLTCTVTGYSITSDYAWNWIRQFPGKGLEWMGYISYSGSFSYHPSLKSRVTISRDTSKNQFSLKLSSVTAADTAVYYCARSFSYGYGFAYWGQGTLVTVSS VL: DIVMTQSPSSLSASVGDRVTITCKASQDVSSAVAWYQQKPGQSPKLLIYSASYRYTGVPDRFSGSGSGTDFTFTISSLQPEDFATYYCQQHYSTPWTFGGGTKLEIK | 6.1 | 0.000872 | 144000 |  |  | 
12 | H2L1 (antibody, V domains shown, also called humanized antibody variant H2L1) VH: QVQLQESGPGLVKPSQTLSLTCTVTGYSITSDYAWNWIRQFPGNGLEWIGYISYSGSFSYHPSLKSRVTISRDTSKNQFSLKLSSVTAADTAVYYCARSFSYGYGFAYWGQGTLVTVSS VL: DIQMTQSPSSLSASVGDRVTITCKASQDVSSAVAWYQQKPGKAPKLLIYSASYRYTGVPSRFSGSGSGTDFTFTISSLQPEDFATYYCQQHYSTPWTFGGGTKVEIK | 4.4 | 0.000751 | 170000 |  |  | 
13 | H2L2 (antibody, V domains shown, also called humanized antibody variant H2L2) VH: QVQLQESGPGLVKPSQTLSLTCTVTGYSITSDYAWNWIRQFPGNGLEWIGYISYSGSFSYHPSLKSRVTISRDTSKNQFSLKLSSVTAADTAVYYCARSFSYGYGFAYWGQGTLVTVSS VL: DIVMTQSPSSLSASVGDRVTITCKASQDVSSAVAWYQQKPGQSPKLLIYSASYRYTGVPDRFSGSGSGTDFTFTISSLQPEDFATYYCQQHYSTPWTFGGGTKLEIK | 6 | 0.000867 | 144000 |  |  | 
14 | H3L1 (antibody, V domains shown, also called humanized antibody variant H3L1) VH: QVQLQESGPGLVKPSQTLSLTCTVTGYSITSDYAWNWIRQFPGNGLEWMGYISYSGSFSYHPSLKSRVTISRDTSKNQFSLKLSSVTAADTAVYYCARSFSYGYGFAYWGQGTLVTVSS VL: DIQMTQSPSSLSASVGDRVTITCKASQDVSSAVAWYQQKPGKAPKLLIYSASYRYTGVPSRFSGSGSGTDFTFTISSLQPEDFATYYCQQHYSTPWTFGGGTKVEIK | 5.1 | 0.000858 | 168000 |  |  | 
15 | H3L2 (antibody, V domains shown, also called humanized antibody variant H3L2) VH: QVQLQESGPGLVKPSQTLSLTCTVTGYSITSDYAWNWIRQFPGNGLEWMGYISYSGSFSYHPSLKSRVTISRDTSKNQFSLKLSSVTAADTAVYYCARSFSYGYGFAYWGQGTLVTVSS VL: DIVMTQSPSSLSASVGDRVTITCKASQDVSSAVAWYQQKPGQSPKLLIYSASYRYTGVPDRFSGSGSGTDFTFTISSLQPEDFATYYCQQHYSTPWTFGGGTKLEIK | 6.8 | 0.000887 | 131000 |  |  | 
16 | H4L1 (antibody, V domains shown, also called humanized antibody variant H4L1) VH: QVQLQESGPGLVKPSQTLSLTCTVTGYSITSDYAWNWIRQFPGNKVEWMGYISYSGSFSYHPSLKSRVTISRDTSKNQFSLKLSSVTAADTAVYYCARSFSYGYGFAYWGQGTLVTVSS VL: DIQMTQSPSSLSASVGDRVTITCKASQDVSSAVAWYQQKPGKAPKLLIYSASYRYTGVPSRFSGSGSGTDFTFTISSLQPEDFATYYCQQHYSTPWTFGGGTKVEIK | 4.7 | 0.000847 | 179000 |  |  | 
17 | Humanized optimized antibody “AFF4” (human IgG format; with G236A/S239D/A330L/I332E mutations) (antibody, also called AFF4 antibody) heavy: QVQLQESGPGLVKPSQTLSLTCTVTGYSITSDYTWNWIRQFPGKGLEWMGYISYSGSYSYNPSLKSRVTISRDTSKNQFSLKLSSVTAADTAVYYCARSFSYSYGFAYWGQGTLVTVSSASTKGPSVFPLAPSSKSTSGGTAALGCLVKDYFPEPVTVSWNSGALTSGVHTFPAVLQSSGLYSLSSVVTVPSSSLGTQTYICNVNHKPSNTKVDKRVEPKSCDKTHTCPPCPAPELLAGPDVFLFPPKPKDTLMISRTPEVTCVVVDVSHEDPEVKFNWYVDGVEVHNAKTKPREEQYNSTYRVVSVLTVLHQDWLNGKEYKCKVSNKALPLPEEKTISKAKGQPREPQVYTLPPSREEMTKNQVSLTCLVKGFYPSDIAVEWESNGQPENNYKTTPPVLDSDGSFFLYSKLTVDKSRWQQGNVFSCSVMHEALHNHYTQKSLSLSPG light: not shown |  |  |  | 0.2 | 8.45e-05 | 416000
